For one sequence, Kd results are on record in US20140322759.

Changes are numbered by the printed parent chain.

What all share (assay): EMSA
In data set [1] the target is T1, phi29 DNA polymerase Q497P Q497P (Bacillus phage phi29) (UniProt P03680).
T1 sequence: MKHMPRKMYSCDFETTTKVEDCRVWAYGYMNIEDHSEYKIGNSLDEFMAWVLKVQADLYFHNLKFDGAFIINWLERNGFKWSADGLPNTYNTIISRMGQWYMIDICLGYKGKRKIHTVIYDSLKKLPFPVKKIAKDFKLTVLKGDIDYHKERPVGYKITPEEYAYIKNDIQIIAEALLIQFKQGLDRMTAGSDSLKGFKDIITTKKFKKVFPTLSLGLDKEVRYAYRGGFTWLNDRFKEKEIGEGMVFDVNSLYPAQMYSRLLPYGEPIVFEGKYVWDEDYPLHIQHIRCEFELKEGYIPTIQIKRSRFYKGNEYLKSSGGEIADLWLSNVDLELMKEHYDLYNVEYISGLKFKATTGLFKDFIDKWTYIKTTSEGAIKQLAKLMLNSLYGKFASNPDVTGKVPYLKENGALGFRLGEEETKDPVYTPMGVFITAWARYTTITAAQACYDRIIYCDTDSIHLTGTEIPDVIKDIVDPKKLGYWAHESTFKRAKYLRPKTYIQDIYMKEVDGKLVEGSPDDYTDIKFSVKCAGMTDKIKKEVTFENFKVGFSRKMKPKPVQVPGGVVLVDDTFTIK
Conditions: SD 50.2; unit not given (μM in assay); pH 7.9, 66 mM K-acetate, 30 C.

Data set [2] addresses T2, phi29 DNA polymerase Mut_4 M8R,V51A,M97T,G197D,E221K (Bacillus phage phi29) (UniProt P03680).
T2 sequence: T1 sequence with M8R, V51A, M97T, G197D, E221K, P497Q
Conditions: SD 10.6; unit not given (μM in assay); pH 7.9, 66 mM K-acetate, 30 C.

The target of data set [3] is T3, phi29 DNA polymerase M8R M8R (Bacillus phage phi29) (UniProt P03680).
T3 sequence: T1 sequence with M8R, P497Q
Conditions: SD 2.1; unit not given (μM in assay); pH 7.9, 66 mM K-acetate, 30 C.

In data set [4] the target is T4, phi29 DNA polymerase V51A V51A (Bacillus phage phi29) (UniProt P03680).
T4 sequence: T1 sequence with V51A, P497Q
Conditions: SD 10.8; unit not given (μM in assay); pH 7.9, 66 mM K-acetate, 30 C.

For “GATCACAGTGAGTAC / TCTATTGTACTCACTGTGATC [15-mer/21-mer primer/template]”, the Kd was 73 µM in data set [1], 67 µM in data set [2], 43 µM in data set [3] and 52 µM in data set [4].

Broadly, the Kd is the equilibrium constant for the complex coming apart.
